In patent publication US20240262879:

T1: Peptide 5 (GPLGVRG)
T1 chain: GPLGVRG

B1: rmMMP9 (protein)
chain: FQTFKGLKWDHHNITYWIQNYSEDLPRDMIDDAFARAFAVWGEVAPLTFTRVYGPEADIVIQFGVAEHGDGYPFDGKDGLLAHAFPPGAGVQGDAHFDDDELWSLGKGVVIPTYYGNSNGAPCHFPFTFEGRSYSACTTDGRNDGTPWCSTTADYDKDGKFGFCPSERLYTEHGNGEGKPCVFPFIFEGRSYSACTTKGRSDGYRWCATTANYDQDKLYGFCPTRVDATVVGGNSAGELCVFPFVFLGKQYSSCTSDGRRDGRLWCATTSNFDTDKKWGFCPDQGYSLFLVAAHEFGHALGLDHSSVPEALMYPLYSYLEGFPLNKDDIDGIQYLYGRGSKPDPRPPATTTTEPQPTAPPTMCPTIPPTAYPTVGPTVGPTGAPSPGPTSSPSPGPTGAPSPGPTAPPTAGSSEASTESLSPADNPCNVDVFDAIAEIQGALHFFKDGWYWKFLNHRGSPLQGPFLTARTWPALPATLDSAFEDPQTKRVFFFSGRQMWVYTGKTVLGPRSLDKLGLGPEVTHVSGLLPRRLGKALLFSKGRVWRFDLKSQKVDPQSVIRVDKEFSGVPWNSHDIFQYQDKAYFCHGKFFWRVSFQNEVNKVDHEVNQVDDVGYVTYDLLQCP
B2: rhMMP1 (protein)
chain: FVLTEGNPRWEQTHLTYRIENYTPDLPRADVDHAIEKAFQLWSNVTPLTFTKVSEGQADIMISFVRGDHRDNSPFDGPGGNLAHAFQPGPGIGGDAHFDEDERWTNNFREYNLHRVAAHELGHSLGLSHSTDIGALMYPSYTFSGDVQLAQDDIDGIQAIYGRSQNPVQPIGPQTPKACDSKLTFDAITTIRGEVMFFKDRFYMRTNPFYPEVELNFISVFWPQLPNGLEAAYEFADRDEVRFFKGNKYWAVQGQNVLHGYPKDIYSSFGFPRTVKHIDAALSEENTGKTYFFVANKYWRYDEYKRSMDPGYPKMIAHDFPGIGHKVDAVFMKDGFFYFFHGTRQYKFDPKTKRILTLQKANSWFNCRKN
B3: rhMMP7 (protein)
chain: YSLFPNSPKWTSKVVTYRIVSYTRDLPHITVDRLVSKALNMWGKEIPLHFRKVVWGTADIMIGFARGAHGDSYPFDGPGNTLAHAFAPGTGLGGDAHFDEDERWTDGSSLGINFLYAATHELGHSLGMGHSSDPNAVMYPTYGNGDPQNFKLSQDDIKGIQKLYGKRSNSRKK
B4: rhMMP2 (protein)
chain: YNFFPRKPKWDKNQITYRIIGYTPDLDPETVDDAFARAFQVWSDVTPLRFSRIHDGEADIMINFGRWEHGDGYPFDGKDGLLAHAFAPGTGVGGDSHFDDDELWTLGEGQVVRVKYGNADGEYCKFPFLFNGKEYNSCTDTGRSDGFLWCSTTYNFEKDGKYGFCPHEALFTMGGNAEGQPCKFPFRFQGTSYDSCTTEGRTDGYRWCGTTEDYDRDKKYGFCPETAMSTVGGNSEGAPCVFPFTFLGNKYESCTSAGRSDGKMWCATTANYDDDRKWGFCPDQGYSLFLVAAHEFGHAMGLEHSQDPGALMAPIYTYTKNFRLSQDDIKGIQELYGASPDIDLGTGPTPTLGPVTPEICKQDIVFDGIAQIRGEIFFFKDRFIWRTVTPRDKPMGPLLVATFWPELPEKIDAVYEAPQEEKAVFFAGNEYWIYSASTLERGYPKPLTSLGLPPDVQRVDAAFNWSKNKKTYIFAGDKFWRYNEVKKKMDPGFPKLIADAWNAIPDNLDAVVDLQGGGHSYFFKGAYYLKLENQSLKSVKFGSIKSDWLGC

What follows are proteins tested against Peptide 8.

| Protein | Specific Activity [pmol/min/µg] |
| --- | --- |
| B1 | 158 |
| B2 | 10.8 |
| B3 | 70.9 |
| B4 | 260 |

What follows are proteins tested against Peptide 10.

| Protein | Specific Activity [pmol/min/µg] |
| --- | --- |
| B1 | 111 |
| B2 | 10 |
| B3 | 98.4 |
| B4 | 163 |

These proteins were tested against Control (peptide of Table 12).

| Protein | Specific Activity [pmol/min/µg] |
| --- | --- |
| B1 | 10 |
| B2 | 10 |
| B3 | 10 |
| B4 | 10 |

Biological target: T1, Peptide 5 (GPLGVRG)

| Protein | Specific Activity [pmol/min/µg] |
| --- | --- |
| B1 | 292 |
| B2 | 10 |
| B3 | 10 |
| B4 | 260 |
